From patent US20250304658A1 (ICAHN SCHOOL OF MEDICINE AT MOUNT SINAI, published 2025) come the findings set out here.

Common to all, as to assay: cell-based or functional assay
In assay [1] the target is BK virus VP1 protein, genotype II (BK virus).
Assay [2] concerns the target BK virus VP1 protein, genotype III (BK virus).
The target in assay [3] is BK virus VP1 protein, genotype IV (BK virus).
The target in assay [4] is BK virus VP1 protein, genotype II (BK virus). This is another data set of the same source.
Assay [5] addresses BK virus VP1 protein, genotype III (BK virus). The source holds these as a separate data set.
Assay [6] concerns the target BK virus VP1 protein, genotype IV (BK virus). The source holds these as a separate data set.
For assay [7], the target named is BK virus VP1 protein, genotype II (BK virus). The source holds these as a separate data set.
In assay [8] the target is BK virus VP1 protein, genotype III (BK virus). This is another data set of the same source.
Assay [9] deals with BK virus VP1 protein, genotype IV (BK virus). This is another data set of the same source.
In assay [10] the target is T1, BK virus VP1 protein, genotype I (BK virus, UniProt P03088 1-362).
T1 sequence: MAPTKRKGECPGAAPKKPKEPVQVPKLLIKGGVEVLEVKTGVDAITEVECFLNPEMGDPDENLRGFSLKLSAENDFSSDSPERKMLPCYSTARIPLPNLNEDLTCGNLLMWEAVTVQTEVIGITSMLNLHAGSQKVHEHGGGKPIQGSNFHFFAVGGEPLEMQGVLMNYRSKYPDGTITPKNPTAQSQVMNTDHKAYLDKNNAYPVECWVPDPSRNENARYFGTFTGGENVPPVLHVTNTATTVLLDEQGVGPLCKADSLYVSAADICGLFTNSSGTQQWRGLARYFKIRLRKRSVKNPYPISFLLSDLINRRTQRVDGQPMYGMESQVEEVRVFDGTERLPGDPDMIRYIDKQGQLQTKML

The target in assay [11] is T1, BK virus VP1 protein, genotype I. The source holds these as a separate data set.
The target is the same in assay [12]. This is another data set of the same source.

Like-named read-outs stand apart in the source and are kept apart here.

B1: 2B9 (antibody, V domains shown)
VH: EVQLLESGGGLAQPGKSLRLSCAASGFTFSGFAMSWVRQAPGKGLEWVSGISGSGDITYYADSVKGRFTISRDNSKSTLYLQMNSLGAEDTAVYYCAKDPYNWNHGVYGMDVWGQGTTVTVSS
VL: DIQMTQSPSSLSASVGDRVTITCRASQSISSYLNWYQQKPGKAPKFLIYGASSLQSGVPSRFSGSGSGTDFTLTISSLQPEDFAAYYCQQSFNAPLTFGGGTKVEIK
Take B1: the “EC50, pseudovirus neutralization” value amounted to 154 pM in assay [1]; 80.8 pM in [2]; 148 pM in [3]; 61.3 pM in assay [7]; 6.8 pM in assay [8]; 11.4 pM in assay [9]. For the same molecule, the “EC50, pseudovirus neutralization (mAb mixed with irrelevant isotype matched mAb M2)” value was 44 pM in [4], 5.4 pM in [5] and 10.8 pM in assay [6].

B2: 2A10 (antibody, V domains shown)
VH: EVQLVQSGAEVKKPGESLKISCKGSGYSFTYYWIGWVRQMPGKGLEWMGIIYPGDSDTRYSPSFQGQVTISADKSISTAYLQWSSLKASDTAMYYCTTHARNWNNVAYWGQGTLVTVSS
VL: DIQMTQSPSSLSASVGDRLTITCRASQNINTFLNWYQQNPGKAPKVLIYAASSLESGVPSRFSGSGSGTDFTLTISSLQPEDFATYYCQQSSSTPWTFGQGTKVEIK
Turning to B2, the “EC50, pseudovirus neutralization” value was more than 6670 pM in [10], 9.4 pM in assay [1], 2.4 pM in assay [2] and 1.5 pM in [3]. In addition, the “EC50, pseudovirus neutralization (mAb mixed with irrelevant isotype matched mAb M2)” value in [11] is more than 6670 pM; in assay [4], 55.7 pM; in [5], 6.4 pM; in assay [6], 5.9 pM; in [12] it was more than 2000 pM; in assay [7], 11.2 pM. Further, the “EC50, pseudovirus neutralization (mAb mixed with irrelevant isotype matched mAb M2)” value is 0.654 pM in assay [8] and 0.72 pM in [9].

B3: 2F11 (antibody, V domains shown)
VH: EVQLVQSGAEVKKPGESLKISCKGSGYSFTNYWIGWVRQMPGKGLEWMGIIYPGDSDTRYSPSFQGQVTLSADKSISTAYLQWNSLKASDTAMYYCATHARSWNYVAYWGQGTLVTVAS
VL: DIQMTQSPSSLSASVGDRVTITCRASQSVNNFLNWYQQKPGTAPKLLIYAASSLQGGVPSRFSGSGSGTDFTLTISSLQPEDFATYYCQQSNTTPWTFGQGTKVEIK
Take B3: the “EC50, pseudovirus neutralization” value is more than 6670 pM in assay [10], 83.8 pM in assay [1], 10.5 pM in assay [2] and 6.1 pM in assay [3]. The “EC50, pseudovirus neutralization (mAb mixed with irrelevant isotype matched mAb M2)” value is more than 2000 pM in assay [12], 148 pM in assay [7], 6.1 pM in assay [8] and 1.85 pM in [9].

B4: 6E1 (antibody, V domains shown)
VH: EVQLLESGGGLVQPGGSLRLSCAASGFTFSSFAMSWVRQAPGKGLEWVSGISGSGGSTYYADSVKGRFTISRDNSKNTLYLQMNSLRAEDTAIYYCAKDKRNWNYGIDSFDFWGQGTMVTVSS
VL: DIQMTQSPSSLSASVGGRVTITCRTSQSISGYLNWYQQKAGKAPKLLIYATSNLQSGVPSRFTGSGSGTDFTLTISSLQPEDFAAYYCHQSHSPPFTFGPGTKVAFK
B4: the “EC50, pseudovirus neutralization” value in [10] was 2.95 pM; in [1] it was more than 6670 pM; in assay [2], more than 6670 pM; in assay [3] it was 9.5 pM. The “EC50, pseudovirus neutralization (mAb mixed with irrelevant isotype matched mAb M2)” value in [11] is 0.67 pM; in [4], more than 6670 pM; in assay [5], more than 6670 pM; in assay [6] it was 49.6 pM; in assay [12], 0.78 pM; in assay [7], more than 2000 pM. The “EC50, pseudovirus neutralization (mAb mixed with irrelevant isotype matched mAb M2)” value in [8] is more than 2000 pM; in assay [9], 21 pM.

B5: 9H9 (antibody, V domains shown)
VH: EVQLVESGGGLVQPGGSLRLSCAASGFTFSSYEMNWVRQAPGKGLEWVSYISSGGSSIKYADSVRGRFTFSRDNAENSVHLQMNSLRGEDTAVYYCARVGGSYYYSYAMDVWGQGTAVTVSS
VL: DIQLTQSPSFLSASVGDRVTITCWASQDISSYLAWYQQKPGKAPKLLIYAASTLQSGVPSRFSGSGSGTEFTLTISSLQPEDFATYYCQQPNNYPFSFGPGTKVDVK
With B5, the “EC50, pseudovirus neutralization” value in [10] was 8.7 pM; in assay [1], 8.3 pM; in [2], 1140 pM; in [3] it was more than 6670 pM.
